Legend:
[1] = test system: PI3Kγ; experiment: Gβ1γ2-dependent activation of purified p101/p110 PI3Kγ; assay type: biochemical; details: Table 5; read-out: PI3Kγ IC50
Method: Purified PLCβ2 (0.25 ng) was assayed in the presence (▴) or absence (▪) of 100 nM purified Gβ1γ2. […] Assays contained 10 ng of purified p101/p110 PI3Kγ heterodimer with or without 100 nM purified Gβ1γ2. Left panel: (▴) 100 nM Gβ1γ2 or (▪) no βγ. […] M119 or M201 and 25 nM purified GRK2 were added simultaneously to 250 nM biotinylated Gβ1γ2 (bGβ1γ2) immobilized on streptavidin agarose. GRK2 was detected with antibody to GRK2. Data are representative (mean ±SEM, except D) repeated at least three times each. […] 30 nM bGβ1γ2 was incubated with either 30 nM PLCβ2 or PLCβ3 in the presence or absence of M119 or M201 for 16 h at 4° C. before precipitation with avidin agarose and detection with PLCβ2,or Gβ antibodies. […] Same as 4E with PLCβ3.
Nevertheless, M119 and M201 were tested in in vitro reconstitution assays of Gβγ-dependent activation of PLCβ2, PLCβ3 and PI3Kγ and binding to GRK2. […] These are only two of multiple diverse compounds identified, indicating potential for multiple modes of Gβγ-dependent target modulation by these small molecules.

[2] = target: T1, Gβ1γ2 (Gβ1 mutants) (UniProt P54311+P63212, M188A); experiment: Phage ELISA: binding of peptide-displaying phage to wild-type or alanine-substituted b-βγ; parameters: species or system rat; details: Gβ1 Met188Ala; mean ± SD
T1 construct: made in house; host or cells: Sf9 insect cells (baculovirus), partially purified via (His)6-Gαi1 on Ni-NTA
Source text: (§1) Wild-type Gβ1 and Gp1 mutants were made in the baculovirus vector PDW464 which encodes a biotinylation site at a lysine upstream of the amino terminus of Gβ1 (Goubaeva, et al. (2003) supra). Mutants were generated by overlap extension PCR using standard protocols. The wild-type and mutant Gβ1 constructs consisted of a 20 amino acid biotin acceptor peptide (BAP) sequence fused in-frame with the amino-terminus of rat Gβ1 subunit. When coexpressed with biotin holoenzyme synthetase (BirA) in Sf9 cells, the Gβ1 subunit becomes covalently biotinylated in vivo at the specific lysine acceptor residue in the BAP. Using this approach, 1-2 mg protein of purified protein can be obtained per liter of Sf9 insect cells. As 45 ng of protein is used in the phage ELISA assay, a single purification is sufficient for 10,000 to 30,000 binding assays.
(§2) Phage ELISA assays used to assess peptide binding to wild-type and mutant b-βγ were performed according to standard methods (Smrcka and Scott (2002) Methods Enzymol. 344:557-76). Briefly, 1 μg streptavidin was immobilized in the well of a […] overnight at 4° C. The wells were blocked with 100 μL of 2% bovine serum albumin (BSA) in Tris-buffered saline (TBS) for 1 hour at 4° C. followed by three washes of IX TBS/0.5% TWEEN®. Forty μL of 25 nM bGβ1γ2 in TBS/0.5% TWEEN® was added to each well and incubated at 4° C. for 1.5 hour. The wells were washed, followed by the addition of IxIO^6 to IxIO^10 phage particles and incubated at 4° C. for 3 hours. The wells were then washed six times with TBS/0.5% TWEEN® followed by addition of 40 μL of 1:5000 dilution of anti-M13 antibody (Pharmacia, Uppsala, Sweden) and incubated at room temperature for 1 hour. The wells were washed, followed by the addition of 40 μL of (2,2′-Azino-bis (3-ethylbenzthiazoline)-6-sulfonic acid (ABTS) and the colorimetric reaction was monitored at 405 nm. Nonspecific binding was subtracted for each reading.
(§3) The nine peptides were selected to represent the different consensus groups of peptides previously identified (See Scott et al. (2001) supra; Table 15) and to compare binding characteristics within and between consensus groups. […] As disclosed herein, the binding signal obtained in the ELISA assay was correlated to a loss in affinity by comparing the results to behavior of the peptide in a solution based assay. […] For the purposes of present disclosure, any substitution that decreased the binding to less than 20% of the wild-type binding was considered to be a critical binding contact for that peptide.

[3] = target: T2, Gβ1γ2 (Gβ1 mutants) (UniProt P54311+P63212, D186A); experiment: as above; parameters: species or system rat; details: Gβ1 Asp186Ala; mean ± SD
T2 construct: made in house; host or cells: Sf9 insect cells (baculovirus), partially purified via (His)6-Gαi1 on Ni-NTA
Source text: as §1, §2, §3

[4] = target: T3, Gβ1γ2 (Gβ1 mutants) (UniProt P54311+P63212, Y59A); experiment: as above; parameters: species or system rat; details: Gβ1 Tyr59Ala; mean ± SD
T3 construct: made in house; host or cells: Sf9 insect cells (baculovirus), partially purified via (His)6-Gαi1 on Ni-NTA
Source text: as §1, §2, §3

[5] = target: T4, Gβ1γ2 (Gβ1 mutants) (UniProt P54311+P63212, D246S); experiment: as above; parameters: species or system rat; details: Gβ1 Asp246Ser; mean ± SD
T4 construct: made in house; host or cells: Sf9 insect cells (baculovirus), partially purified via (His)6-Gαi1 on Ni-NTA
Source text: as §1, §2, §3

[6] = target: T5, Gβ1γ2 (Gβ1 mutants) (UniProt P54311+P63212, N230A); experiment: as above; parameters: species or system rat; details: Gβ1 Asn230Ala; mean ± SD
T5 construct: made in house; host or cells: Sf9 insect cells (baculovirus), partially purified via (His)6-Gαi1 on Ni-NTA
Source text: as §1, §2, §3

[7] = target: T6, Gβ1γ2 (Gβ1 mutants) (UniProt P54311+P63212, L117A); experiment: as above; parameters: species or system rat; details: Gβ1 Leu117Ala; mean ± SD
T6 construct: made in house; host or cells: Sf9 insect cells (baculovirus), partially purified via (His)6-Gαi1 on Ni-NTA
Source text: as §1, §2, §3

[8] = target: T7, Gβ1γ2 (Gβ1 mutants) (UniProt P54311+P63212, R314A); experiment: as above; parameters: species or system rat; details: Gβ1 Arg314Ala; mean ± SD
T7 construct: made in house; host or cells: Sf9 insect cells (baculovirus), partially purified via (His)6-Gαi1 on Ni-NTA
Source text: as §1, §2, §3

[9] = target: T8, Gβ1γ2 (Gβ1 mutants) (UniProt P54311+P63212, M101A); experiment: as above; parameters: species or system rat; details: Gβ1 Met101Ala; mean ± SD
T8 construct: made in house; host or cells: Sf9 insect cells (baculovirus), partially purified via (His)6-Gαi1 on Ni-NTA
Source text: as §1, §2, §3

[10] = target: T9, Gβ1γ2 (Gβ1 mutants) (UniProt P54311+P63212, W99A); experiment: as above; parameters: species or system rat; details: Gβ1 Trp99Ala; mean ± SD
T9 construct: made in house; host or cells: Sf9 insect cells (baculovirus), partially purified via (His)6-Gαi1 on Ni-NTA
Source text: as §1, §2, §3

[11] = target: T10, Gβ1γ2 (Gβ1 mutants) (UniProt P54311+P63212, K57A); experiment: as above; parameters: species or system rat; details: Gβ1 Lys57Ala; mean ± SD
T10 construct: made in house; host or cells: Sf9 insect cells (baculovirus), partially purified via (His)6-Gαi1 on Ni-NTA
Source text: as §1, §2, §3

[12] = target: T11, Gβ1γ2 (Gβ1 mutants) (UniProt P54311+P63212, W332A); experiment: as above; parameters: species or system rat; details: Gβ1 Trp332Ala; mean ± SD
T11 construct: made in house; host or cells: Sf9 insect cells (baculovirus), partially purified via (His)6-Gαi1 on Ni-NTA
Source text: as §1, §2, §3

[13] = target: T12, Gβ1γ2 (Gβ1 mutants) (UniProt P54311+P63212, Y145A); experiment: as above; parameters: species or system rat; details: Gβ1 Tyr145Ala; mean ± SD
T12 construct: made in house; host or cells: Sf9 insect cells (baculovirus), partially purified via (His)6-Gαi1 on Ni-NTA
Source text: as §1, §2, §3

[14] = target: T13, Gβ1γ2 (Gβ1 mutants) (UniProt P54311+P63212, H311A); experiment: as above; parameters: species or system rat; details: Gβ1 His311Ala; mean ± SD
T13 construct: made in house; host or cells: Sf9 insect cells (baculovirus), partially purified via (His)6-Gαi1 on Ni-NTA
Source text: as §1, §2, §3

Row | Molecule | IC50 [1] [µM] | % of Wild-Type Signal [2] [%] | % of Wild-Type Signal [3] [%] | % of Wild-Type Signal [4] [%] | % of Wild-Type Signal [5] [%] | % of Wild-Type Signal [6] [%] | % of Wild-Type Signal [7] [%] | % of Wild-Type Signal [8] [%] | % of Wild-Type Signal [9] [%] | % of Wild-Type Signal [10] [%] | % of Wild-Type Signal [11] [%] | % of Wild-Type Signal [12] [%] | % of Wild-Type Signal [13] [%] | % of Wild-Type Signal [14] [%]
1 | Nc1ccc(-c2ccc(Nc3cc(S(=O)(=O)O)c(N)c4c3C(=O)c3ccccc3C4=O)cc2)c(S(=O)(=O)O)c1 [drawing 65] | 16 | – | – | – | – | – | – | – | – | – | – | – | – | –
2 | SCEKRLGVRSCT (phage-displayed) [Compound C5] | – | 97.2 ± 14.2 | 45.7 ± 5.2 | 73.8 ± 16.6 | 56.3 ± 4.1 | 33.5 ± 7.2 | 28.5 ± 5.2 | 76.5 ± 6.7 | 47.8 ± 18.9 | 39.0 ± 3.8 | 5.6 ± 5.3 | 3.2 ± 3.7 | 16.7 ± 4.8 | 58.7 ± 14.4
3 | SCEKRYGIEFCT [Compound C4] | – | 127.5 ± 22.4 | 51.3 ± 15.0 | 7.6 ± 9.6 | 35.8 ± 7.4 | 11.5 ± 6.0 | 18.4 ± 7.1 | 1.4 ± 1.0 | 61.2 ± 30.9 | 67.0 ± 15.2 | −0.2 ± 1.9 | 1.7 ± 3.0 | 4.4 ± 3.8 | 36.5 ± 8.3
4 | SCGHGLKVQSTIGACA [Compound 3C] | – | −5.7 ± 5.6 | 35.0 ± 17.2 | 8.5 ± 6.4 | 2.0 ± 2.7 | 4.1 ± 4.4 | 10 ± 13.3 | 8.3 ± 3.6 | −4.2 ± 5.5 | −0.5 ± 5.9 | 3.6 ± 7.5 | −0.3 ± 1.7 | 2.7 ± 10.5 | 30.5 ± 18.9
5 | SCKRTKAQILLAPCT [Compound C1] | – | 4.0 ± 3.4 | 1.4 ± 1.7 | 0.3 ± 0.7 | 2.3 ± 3.0 | 19.8 ± 12.3 | 5.2 ± 3.1 | 2.8 ± 1.6 | 70.5 ± 35.3 | 1.2 ± 2.7 | 0.1 ± 1.6 | −0.3 ± 2.5 | 88.0 ± 29.9 | 3.0 ± 4.0
6 | SIGKALFILGYPDYD [Compound 3.14] | – | 2.5 ± 3.7 | 14.4 ± 13.4 | 24.7 ± 15.2 | 66.5 ± 7.5 | 22.4 ± 4.2 | 2.1 ± 2.4 | 50.2 ± 5.0 | 26.8 ± 12.5 | 66.0 ± 7.7 | 18.6 ± 4.6 | 7.1 ± 3.7 | 0.8 ± 0.9 | 93.4 ± 21.5
7 | WCPPKAMTQLGIKAC [Compound C14] | – | 9.9 ± 3.8 | 3.6 ± 1.9 | 3.6 ± 2.0 | 6.3 ± 13.9 | 60.0 ± 26.5 | 3.8 ± 9.2 | 3.9 ± 7.9 | 1.1 ± 4.9 | 10.1 ± 3.3 | 3.0 ± 5.0 | 1.6 ± 2.4 | 1.9 ± 5.9 | 6.1 ± 3.4
8 | WCPPKLEQWYDGCA [Compound C2] | – | −0.7 ± 2.5 | 267.2 ± 40.6 | −1.7 ± 4.8 | 5.9 ± 5.7 | 0.0 ± 3.3 | 1.5 ± 5.5 | 1.3 ± 3.1 | 157.1 ± 51.5 | −1.0 ± 5.1 | −1.2 ± 4.5 | 4.7 ± 6.2 | 4.5 ± 8.1 | 11.7 ± 8.0

— patent US8975259B2, “Compositions and methods for inhibiting G protein signaling” (University of Rochester, priority 2007, dated 2015)
